According to the supplement of paper PMC12667976:

B1: library; numbered along this chain (parent)
chain: MATDAALRRLLRLHRTEIAVAVDSAFPLLHALADHDVVPEDKFQETLHLKEKEGCPQAFHALLSWLLTQDSTAILDFWRVLFKDYNLERYGRLQPILDSFPKDVDLSQPRKGRKPPAVPKALVPPPRLPTKRKASEEARAAAPAALTPRGTASPGSQLKAKPPKKPESSAEQQRLPLGNGIQTMSASVQRAVAMSSGDVPGARGAVEGILIQQVFESGGSKKCIQVGGEFYTPSKFEDSGSGKNKARSSSGPKPLVRAKGAQGAAPGGGEARLGQQGSVPAPLALPSDPQLHQKNEDECAVCRDGGELICCDGCPRAFHLACLSPPLREIPSGTWRCSSCLQATVQEVQPRAEEPRPQEPPVETPLPPGLRSAGEEVRGPPGEPLAGMDTTLVYKHLPAPPSAAPLPGLDSSALHPLLCVGPEGQQNLAPGARCGVCGDGTDVLRCTHCAAAFHWRCHFPAGTSRPGTGLRCRSCSGDVTPAPVEGVLAPSPARLAPGPAKDDTASHEPALHRDDLESLLSEHTFDGILQWAIQSMARPAAPFPS

Variants of: B1
Experiment: AIRE transcriptional activation functional score (insulin promoter-GFP; nonsense median 0, synonymous median 1) (normalised score); higher = higher AIRE activity (more reporter activation)
Settings: with insulin promoter-GFP reporter in HEK293
Experimental: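 Deep mutational scan of full-length human AIRE (codon-optimized cDNA, DT-POPCode NNN libraries over three regions) integrated at a Bxb1 landing pad in HEK293 cells carrying an insulin core promoter-GFP reporter at a Flp-In site. Cells were sorted for the top 10% GFP about 14 days after transfection. Variant frequency log-ratios (select vs non-select, TileSeq) were rescaled so that the nonsense median is 0 and the synonymous median is 1, then averaged over biological replicates.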

AIRE transcriptional activation functional score: each site, then its substitutions
A2: E 1.14 | G 0.545 | P 1.55 | S 1.27 | T 0.369 | V -0.0464
T3: A 1.09 | E -0.211 | G 0.0107 | I -0.128 | K 1.31 | L 1.26 | M 1.74 | N 0.808 | P -0.0536 | R 1.18 | S 0.972 | V 0.465 | W 2.08
D4: A 0.529 | C 0.509 | E 1.26 | F 0.414 | G 0.166 | H -0.661 | I 0.179 | L 0.0531 | N 0.245 | P -0.0888 | Q -3.53 | R -0.235 | S 0.199 | T -0.494 | V 0.202 | W 0.262 | Y 0.616
A5: C 1.17 | D 0.947 | E 1.41 | F 0.709 | G 0.74 | H 0.534 | I 1.2 | L 1 | M 0.955 | N 0.61 | P 0.767 | Q 0.782 | R 1.72 | S 1.24 | T 1.04 | V 1.45 | W 0.849 | Y 0.397
A6: C 0.756 | D 1.01 | E 1.37 | F 1.43 | G 1.2 | H 0.532 | I 0.395 | L 1.45 | M 0.372 | N -0.00395 | P 0.153 | Q 1.03 | R 0.648 | S 0.223 | T 0.643 | V 0.772 | W 0.676 | Y 2.12
L7: A -0.112 | C -1 | D -0.451 | F -0.323 | G -0.106 | H 0.927 | I 0.982 | K -0.0956 | M 0.507 | N -0.876 | P 0.0964 | Q 0.381 | R 0.0717 | S 0.248 | T 1.26 | V -0.199 | W 0.0852 | Y 0.122
R8: A -0.421 | C 0.131 | D 0.401 | E -0.344 | F -0.127 | G -0.0812 | H -0.286 | I 0.433 | K 0.485 | L -0.0603 | N -0.26 | P -0.196 | Q -1.39 | S 0.281 | T -0.0815 | V -0.0144 | W -0.126 | Y -0.316
R9: A 1.09 | C -0.35 | D 0.539 | E -0.057 | F -0.124 | G 0.856 | H 0.195 | I 0.0495 | K -2.37 | L 0.268 | M 0.633 | N 1.38 | P 0.671 | Q 1.13 | S 1.39 | T 0.253 | V 0.133 | W 0.515 | Y 0.868
L10: A -0.0675 | C -0.25 | D 0.416 | E -0.413 | F 0.827 | G -0.12 | H 1.75 | I 0.238 | K -1.76 | M 0.438 | N -0.218 | P 0.292 | Q -0.766 | R 0.701 | S -0.035 | T 0.145 | V -0.151 | W -0.175 | Y 1.01
L11: A -0.709 | C -0.106 | D 0.606 | E -0.17 | F 0.127 | G -0.259 | H -0.271 | I 0.208 | K 0.379 | M 0.0247 | N 0.0103 | P 0.466 | Q 0.602 | R 0.101 | S 0.17 | T -0.0406 | V 0.213 | W 0.256 | Y -0.339
R12: A -0.914 | C -0.448
